# According to patent US20220064291A1, “METHODS OF USING BUTYROPHILIN ANTIBODIES FOR TREATING HIV INFECTION” (Merck Sharp & Dohme Corp., priority 2018, published 2022):
# Changes are numbered by the printed parent chain.
# B1: 1G (antibody, V domains shown)
# VH: QVQLVQSGAEVKKPGASVKVSCKASGYTFTSYGISWVRQAPGQGLEWMGWISAYNGNTNYAQKLQGRVTMTTDTSTSTAYMELRSLRSDDTAVYYCARLGATVAYFDLWGRGTLVTVSS
# VL: EIVLTQSPATLSVSPGERATLSCRASQSVSSNLAWYQQKPGQAPRLLIYGASTRATGIPARFSGSGSGTEFTLTISSLQSEDFAVYYCQQDVYWPFTFGGGTKVEIK
# B2: 3B (antibody, V domains shown)
# VH: QVQLVQSGAEVKKPGASVKVSCKASGYTFTSYYMHWVRQAPGQGLEWMGIINPSGGSTSYAQKFQGRVTMTRDTSTSTVYMELSSLRSEDTAVYYCARPSGDYSGYDALDVWGQGTMVTVSS
# VL: B1 VL with V13L, N32Y, G50D, T53N, E70D, Q79E, S80P, V92P, F96I
# B3: 2A (antibody, V domains shown)
# VH: QVQLVQSGAEVKKPGASVKVSCKASGYTFTSYYIHWVRQAPGQGLEWMGIINPSGGSTSYAQKFQGRVTMTRDTSTSTVYMELSSLRSEDTAVYYCARATWEALHYWGQGTLVTVSS
# VL: B1 VL with L4M, S30G, D91Y, V92Y, Y93A, F96R
# B4: 3A (antibody, V domains shown)
# VH: QVQLVQSGAEVKKPGASVKVSCKASGYTFTSYYMHWVRQAPGQGLEWMGIINPGGGSTSYAQKFQGRVTMTRDTSTSTVYMELSSLRSEDTAVYYCARDAGHDYGDMAYWGQGTLVTVSS
# VL: DIQMTQSPSTLSASVGDRVTITCRASQSISSWLAWYQQKPGKAPKLLIYKASSLESGVPSRFSGSGSGTEFTLTISSLQPDDFATYYCQQYRSFPTFGGGTKVEIK
# Test system: HIV latent primary CD4+ T cells
# Test: T cell activation by plate-coated anti-BTN3A antibody plus anti-CD3, IFNγ expression (V-PLEX)
# Type: cell-based, human
# Conditions: production of IFNγ, with anti-CD3, Yes/No
# Description: (§1) Latent HIV-1 infected primary CD4+ T cells were generated following a protocol licensed from the laboratory of Jonathan Karn (Case Western Reserve University, Cleveland, Ohio). Briefly, naive CD4^+ T cells isolated from 2 healthy human donors were propagated for 6 days in growth medium supplemented with Dynabeads Human T-Activator CD3/CD28 (25 μl/10^6 cells) and Th17 polarizing cytokines: TGF-β1 (5 ng/ml), IL-4 (10 ng/ml), IFNγ (10 ng/ml), IL-1β (10 ng/ml), IL-6 (30 ng/ml), IL-23 (50 ng/ml), IL-8 (15 ng/ml), IL-10 (10 ng/ml). […]. Reactivation of HIV-1 proviruses from latently infected cells was performed by treatment with Dynabeads Human T-Activator CD3/CD28 (25 μl/10^6 cells) or PMA/Ionomycin.
# We next addressed if treatment with anti-BTN3A antibodies reverses BTN3A-mediated blockade in T cell activation. To assess this, sterile 96-well flat bottom tissue culture plates (Corning) were coated with various concentrations of anti-CD3 and anti-BTN3 20.1 antibodies (10 μg/ml, 3 μg/ml, 1 μg/ml, and 0.3 μg/ml) in PBS for 16 h in a 4° C. refrigerator. As controls, plates were coated with various concentrations of anti-CD3 antibody and isotype control antibody (10 μg/ml, 3 μg/ml, 1 μg/ml, and 0.3 μg/ml), anti-CD3 antibody alone, or isotype control antibody alone. The next day, antibodies were aspirated using a multichannel pipette and HIV latent primary CD4+ T cells from two donors were added to the antibody coated plates in duplicates at 125,000 cells/well in 200 ul of primary cell media (RPMI with 10% FBS, 50 μg/ml Primocin™). At 72 h following treatment T cell activation was measured based on IFNγ expression using a V-PLEX proinflammatory panel 1 human assay (Meso Scale Discovery, Rockville, Md.) (FIG. 4).
# (§2) Using the protocols described in detail in Example 2B and Example 3A, anti-BTN3A antibodies were screened for a functional role in T cell activation and reactivation of latent HIV. Antibody screens were conducted using HIV latent CD4+ T cells (prepared as described in Example 1A). T cell activation was quantified by production of IFNγ, and reactivation of latent HIV was quantified by luciferase assay. […] Detailed information on binding profile with binding affinity (KD) (Table 4) and antibody isotype and sequence (Table 5) are provided for two representative antibodies from each of the three functional categories observed.
row,Molecule,Antibody function T cell activation
1,B1,Yes
2,B2,Yes
3,B3,No
4,B4,Yes

# Molecular target: T1, BTN3A2 (Homo sapiens, UniProt P78410)
# T1 construct: Fc (Fc-chimera); purchased R&D systems; host or cells: HEK293
# Test: BTN isoform binding of yeast display antibodies (Octet isoform binding profile, binding affinity)
# Conditions: Table 4; Yes/No; hIgG1-297A isotype
# Description: (§3) De novo antibody discovery for butyrophilin isoforms was executed on pre-immune yeast display libraries. The soluble proteins used in the yeast display selections were biotinylated recombinant proteins of HEK293-expressed Fc-chimeras BTN2A2, BTN3A1, BTN3A2, and BTN3A3 from R&D systems. All proteins were analyzed before use by Biacore binding against control antibody anti-BTN Monoclonal Antibody (eBioBT3.1 (20.1, BT3.1), SEC, SDS-PAGE, and endotoxin.
# (§4) Each biotinylated BTN isoform was subjected to pre-immune yeast display libraries for selections. The selections started with MACS (Magnetic Bead-based Cell Separation) cell separations for the first two rounds to enrich clones that bind to the targeted BTN isoforms, and applied fluorescence activated cell sorting (FACS) at later rounds to isolate clones that were with high affinity and isoform specificity. Due to the high sequence homology among all BTN isoforms, isoform-specific selection pressures were achieved by introducing ten-fold molar ratio of the non-biotinylated BTN isoforms to the biotinylated and selection-targeted BTN isoforms in the later rounds of the selections.
# (§5) The isolated clones were then sequenced to identify the unique antibodies and screened for isoform binding profiles by Octet. To ensure the isolated antibodies have broad-epitopic coverage, all the antibodies were subjected to binning against the benchmark antibodies: BTN20.1 (Biolegend, agonist) and BTN103.2 (Creative Biolabs, antagonist). Purified antibodies were submitted for functional assay screening, as described below.
# (§6) Given the sequence homology between BTN3A isoforms (>90%), this outcome is expected. Within all 105 antibodies from the BTN3A1 campaign and 125 antibodies from the BTN3A2 campaign, each antibody was characterized into one of the bins: Biolegend-bin, Creative-Biolabs-bin, Empty Set, or Overlapping.
# as §2
# T1 sequence (P78410 with tags, fused parts or gaps limits assumed): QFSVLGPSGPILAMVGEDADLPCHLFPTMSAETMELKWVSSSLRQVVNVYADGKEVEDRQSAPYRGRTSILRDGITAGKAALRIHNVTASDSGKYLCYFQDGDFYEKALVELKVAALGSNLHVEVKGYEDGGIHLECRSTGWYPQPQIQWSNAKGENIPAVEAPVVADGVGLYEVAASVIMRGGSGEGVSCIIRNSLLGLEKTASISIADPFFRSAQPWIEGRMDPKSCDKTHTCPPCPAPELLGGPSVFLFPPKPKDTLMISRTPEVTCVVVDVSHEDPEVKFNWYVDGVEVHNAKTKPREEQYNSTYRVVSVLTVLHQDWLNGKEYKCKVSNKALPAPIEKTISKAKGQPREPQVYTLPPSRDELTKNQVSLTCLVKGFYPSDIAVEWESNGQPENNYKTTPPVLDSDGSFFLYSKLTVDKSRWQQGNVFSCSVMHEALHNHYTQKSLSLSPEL
row,Molecule,BTN3A2 Binding
1,B1,Yes
2,B2,Yes
3,B3,No
4,B4,No

# Molecular target: T2, BTN3A3 (Homo sapiens, UniProt O00478)
# T2 construct: Fc (Fc-chimera); purchased R&D systems; host or cells: HEK293
# Test: as above
# Conditions: Table 4; Yes/No; hIgG1-297A isotype
# Description: as §3, §4, §5, §6, §2
# T2 sequence (O00478 with tags, fused parts or gaps limits assumed): as the sequence (P78410 with tags, fused parts or gaps limits assumed) above, with K37R, N120D, V123I, Q149K, N152D, A153T, E174A, G184S, E187G counted along it
row,Molecule,BTN3A3 Binding
1,B1,Yes
2,B2,Yes
3,B3,Yes
4,B4,Yes

# Molecular target: T3, BTN3A1 (Homo sapiens, UniProt O00481)
# T3 construct: Fc (Fc-chimera); purchased R&D systems; host or cells: HEK293
# Test: as above
# Conditions: Table 4; Yes/No; hIgG1-297A isotype
# Description: as §3, §4, §5, §6, §2
# T3 sequence (O00481 with tags, fused parts or gaps limits assumed): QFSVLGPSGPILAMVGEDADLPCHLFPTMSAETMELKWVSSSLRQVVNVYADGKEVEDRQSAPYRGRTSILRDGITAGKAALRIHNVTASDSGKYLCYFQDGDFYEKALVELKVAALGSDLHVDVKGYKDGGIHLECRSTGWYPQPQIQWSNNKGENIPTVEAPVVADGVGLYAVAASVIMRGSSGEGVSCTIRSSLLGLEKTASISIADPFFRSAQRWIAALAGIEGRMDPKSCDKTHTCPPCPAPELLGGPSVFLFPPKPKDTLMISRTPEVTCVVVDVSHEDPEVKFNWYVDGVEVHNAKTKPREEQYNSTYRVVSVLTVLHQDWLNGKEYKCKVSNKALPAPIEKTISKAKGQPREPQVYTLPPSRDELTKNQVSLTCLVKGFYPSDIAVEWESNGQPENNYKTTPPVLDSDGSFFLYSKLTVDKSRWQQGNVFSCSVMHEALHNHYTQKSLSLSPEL
row,Molecule,BTN3A1 Binding
1,B1,Yes
2,B2,Yes
3,B3,Yes
4,B4,Yes

# Test system: latent HIV in HIV latent primary CD4+ T cells
# Test: Latent virus reactivation by plate-coated anti-BTN3A antibody plus anti-CD3, Nano-Glo Luciferase Assay
# Type: cell-based, HIV-1
# Conditions: with anti-CD3, Yes/No
# Description: as §1
# To assess if BTN3A modulation has impact on HIV latency reversal, sterile 96-well flat bottom tissue culture plates (Corning) were coated with various concentrations of anti-CD3 and anti-BTN3 20.1 antibodies (10 μg/ml, 3 μg/ml, 1 μg/ml, and 0.3 μg/ml) in PBS for 16h in a 4° C. refrigerator. As controls, plates were coated with various concentrations of anti-CD3 antibody and isotype control antibody (10 μg/ml, 3 μg/ml, 1 μg/ml, and 0.3 μg/ml), anti-CD3 antibody alone, or isotype control antibody alone. The next day, antibodies were aspirated using a multichannel pipette and HIV latent primary CD4+ T cells from two donors were added to the antibody coated plates in duplicates at 125,000 cells/well in 200 ul of primary cell media (RPMI with 10% FBS, 50 μg/ml Primocin™). At 24 h post treatment latent virus reactivation was measured using a Nano-Glo® Luciferase Assay (Promega) (FIG. 5).
# as §2
row,Molecule,Antibody function HIV reactivation
1,B1,No
2,B2,Yes
3,B3,Yes
4,B4,Yes
